Results: patent publication US20250296984A1, “THERAPEUTIC AND DIAGNOSTIC AGENTS AND USES THEREOF” (priority 2022, published 2025)
Marks after values point to notes of the source that are not given here.

What was measured:
[1] = tested on: control CHO cells (US28 negative); assay: FACS binding to US28 negative control CHO cells; parameters: species or system Chinese hamster
Procedure: (§1) Flowcytometry was used to analyze cell surface binding by the US28 antibodies. Upon cell harvest, adherent non-infected and US28 overexpressing or HCMV infected cells were washed three times with cell staining buffer (phosphate-buffered saline (PBS (Amresco, Cleveland, 44139, USA) added 0.5% BSA and 0.05% Sodium Azide (NaN3)). The cells were trypisinized and then resuspended in DMEM with 10% FBS to inhibit the action of trypsin. The cells were then pelleted at 400×g for 10 minutes and washed three times in cell staining buffer. Cell viability and cell concentration were measured by tryphan blue viability assay and a cell counter (Countess, Invitrogen, Carlsbad, CA 92008, USA). The cell suspension was adjusted to 1×10^6 cells/mL with ice-cold cell staining buffer. The cells were blocked in 1 ml 10% FBS or 1% BSA in PBS per 1×10^6 cells, vortexed briefly, and incubated for 10-30 minutes to eliminate non-specific staining. The cells were then stained with the respective antibodies and appropriate negative controls.
(§2) In both cases (ECD1 and ECD3), the antibodies were added to the cells, vortexed and incubated on ice for 15 to 30 minutes up to overnight and washed twice with cell staining buffer to remove any unbound antibodies. In addition, the CMV Immediate Early Antigen (IE) Alexa488 Ab, MAB810X, 1:50 was included to verify HCMV infected cells in one of the experiments. Because it binds to an intracellular, HCMV encoded protein, it was added after permeabilizing the cells in 70% ethanol for 30 min on ice.
(§3) 1:500-1:5000 in cell staining buffer of the appropriate fluorescent-conjugated appropriate secondary antibodies were added and incubated on ice for 15-20 min in the dark. The cells were washed three times to remove any unbound antibodies. The cells were then fixed with 0.5% paraformaldehyde (PFA) for 30 min on ice and resuspended in 200-500 μL cell staining buffer for final flow cytometric analysis using an Accuri C6 flow cytometry system (BD Biosciences, San Jose, CA 95131, USA). Data analyses were performed using FlowJo software v8.8 (Treestar Inc. Ashland, OR 97520, USA).
(§4) Background levels were determined using the respective secondary antibodies (anti-mFc-FITC for the subclones, or anti-myc-PE for the VUN100 molecules) with CHO cells and CHO-US28 cells. Given that US28 is expressed on the cell surface, the cells were non-permeabilised for these experiments.

[2] = molecular target: T1, HCMV US28 (strain DB) on CHO-US28-A1 cells (Human cytomegalovirus, UniProt P69332, D170N/D19A); assay: FACS surface binding to CHO-US28-A1 cells
T1 construct: expressed in transfected cells; host or cells: CHO-K1 (vector pCDH-EF1a-MCS)
Procedure: Plasmid construction was performed to create a US28-overexpressing cell line. The US28 sequence, identical to HCMV DB strain (Acc. Number: KT959235; SEQ ID No. 5 of this application), fused to a 6His tag at its C terminal part, was inserted into the pCDH-EF1a-MCS vector (Creative Biolabs, Shirley, NY 11967, USA). The plasmid construct was transfected to CHO-K1 cell line. The cells were collected 48 hours after transfection. The cell line was named as CHO-US28-A1-6His and its protein sequence (SEQ ID NO: 47) is the following:
as §1
The primary antibodies used were I) 13-5G6-1D3 (50 μg/ml) as a positive control; II) Monovalent and Bivalent VUN100 ScFvs 1:1 (50 μg/ml); III) test antibodies for the specified subclones (1:5).
The primary antibodies used were I) 13-5G6-1D3 1:50 to 50 μg/ml; and II) Commercial US28 polyclonal antibody (50 μg/ml), III) Monovalent and Bivalent VUN100 ScFvs (50 μg/ml) and for certain experiments, the appropriate isotype controls were included.
as §2, §3, §4

[3] = tested on: human heart muscle tissue; assay: IHC on human cardiac tissue samples (TMA with malignant pheochromocytoma positive control)
Procedure: FIG. 19. A. Flowcytometry analysis with the 28-13-5G6-1D3-PE antibody were conducted on various human primary cells to exclude general off-target binding to the surface of these cell types. The following cell lines were studied: human primary adrenal cortical cells, human primary kidney epithelial cells, human primary cardiac microvascular endothelial cells, human primary liver epithelial cells and human primary vein smooth muscle cells. […] B. Original human primary cardiac cells were not available, and human cardiac tissue samples were therefore studied for staining of 13-5G6-1D3 by immunohistochemistry. […] If there were HCMV infections present in the human heart, they were always of productive infection type. […] The positive 13-5G6-1D3 and HCMV ISH results are marked with arrows in the figure. A colour version of FIG. 19 is also provided.

[4] = tested on: human astrocytoma and glioblastoma tissues; assay: IHC in human brain cancer cohort (astrocytoma grade 1-3, glioblastoma grade 4, NAT); parameters: key to IHC staining grade: stained negative (0); positive cytoplasmic staining (1+); moderately positive cytoplasmic staining (2+)
From the text: FIG. 17. Human glioblastoma tissues were studied with the US28-13-5G6-1D3 rAb and MAB810R antibodies by using IHC and with ISH analysis for HCMV DNA. […] The staining was present in several cells in each positive sample which was different from the breast cancer samples. However, the staining of the glia cells was weaker than for the US28-13-5G6-1D3 rAb. C. The brain tissue NAT is negative for 13-5G6-1D3 staining. […] The arrows indicate these signals. E. The staining of the same Gliobastoma grade IV sample is negative for the IgG antibody. F. The ISH analysis is negative for the same brain tissue NAT sample. The positive glia cells are indicated with arrows in the non-colour version of these figures. A colour version of FIG. 17 is provided on the page after the non-colour version.
FIG. 18. US28-13-5G6-1D3 staining of the human brain cancer cohort containing human astrocytoma grade 1-3 and glioblastoma grade 4 and NAT tissues. All the astrocytoma grade 1 (n=4) stained negative (0). Of the grade 2-3 astrocytomas, 6 stained negative (0), 37 had positive cytoplasmic staining (1+), and 2 had moderately positive cytoplasmic staining (2+). […] The ISH analysis confirmed presence of nuclear HCMV DNA in tumor cells of all tumor samples. Only 3 of 10 NAT samples were HCMV DNA positive.

B1: 13-5G6-1D3 rAb: recombinant antibody product of US28-13-5G6-1D3 produced in HEK293-F cells (antibody)
heavy: EVKLVESGGGLVQPGGSLRLACATSGFTFTDYYMSWVRQPPGKALEWLGFIRSKANGYTTEYSASVKGRFTISRDNSQSILYLQMNTLRSEDSATYYCARDERRTAWLAYWGQGTLVTVSAAKTTPPSVYPLAPGSAAQTNSMVTLGCLVKGYFPEPVTVTWNSGSLSSGVHTFPAVLQSDLYTLSSSVTVPSSTWPSETVTCNVAHPASSTKVDKKIVPRDCGCKPCICTVPEVSSVFIFPPKPKDVLTITLTPKVTCVVVDISKDDPEVQFSWFVDDVEVHTAQTQPREEQFNSTFRSVSELPIMHQDWLNGKEFKCRVNSAAFPAPIEKTISKTKGRPKAPQVYTIPPPKEQMAKDKVSLTCMITDFFPEDITVEWQWNGQPAENYKNTQPIMDTDGSYFIYSKLNVQKSNWEAGNTFTCSVLHEGLHNHHTEKSLSHSPGK
light: DVLMTQTPLSLPVSLGDQASISCRSSQSIVHSNGNTYLDWYLQKPGQSPKLLIYKVSNRFSGVPDRFSGSGSGTDFTLKISRVEAEDLGVYYCFQGSHVPTWTFGGGTKLEIKRADAAPTVSIFPPSSEQLTSGGASVVCFLNNFYPKDINVKWKIDGSERQNGVLNSWTDQDSKDSTYSMSSTLTLTKDEYERHNSYTCEATHKTSTSPIVKSFNRNEC
**Q.** Which results are given for B1?
**A.** control CHO cells bound ([1]; 1:10 dilution (w/v), blank and secondary Ab controls removed, FIG. 7): 0.77%; Binding Specificity (ratio of surface binding) ([2]; CHO-US28-A1 cells compared with US28 negative control CHO cells): 21.5*; higher surface binding to US28 expressing CHO cells than control CHO cells ([2]; FIG. 7): > 21 times

B2: US28-13-5G6-1D3: monoclonal antibody against ECD3 of HCMV US28; VH SEQ ID NO: 12, VL SEQ ID NO: 18; rAb is the recombinant product (antibody, V domains shown)
VH: EVKLVESGGGLVQPGGSLRLACATSGFTFTDYYMSWVRQPPGKALEWLGFIRSKANGYTTEYSASVKGRFTISRDNSQSILYLQMNTLRSEDSATYYCARDERRTAWLAYWGQGTLVTVSA
VL: DVLMTQTPLSLPVSLGDQASISCRSSQSIVHSNGNTYLDWYLQKPGQSPKLLIYKVSNRFSGVPDRFSGSGSGTDFTLKISRVEAEDLGVYYCFQGSHVPTWTFGGGTKLEIK
modifications: Mature form of VH sequence of 1D3, without the leader sequence; Mature form of VL sequence of 1D3, without the leader sequence
notes: monoclonal antibody against ECD3 of HCMV US28; rAb is the recombinant product
**Q.** What does the source list for B2?
**A.** IHC staining of heart muscle tissue [3]: negative; IHC staining grade ([4]; all astrocytoma grade 1 (n=4)): 0; number of tumors stained negative (0) ([4]; grade 2-3 astrocytomas): 6; number of tumors with moderately positive cytoplasmic staining (2+) ([4]; grade 2-3 astrocytomas): 2; number of tumors with positive cytoplasmic staining (1+) ([4]; grade 2-3 astrocytomas): 37; binding to CHO-US28-A1 cells relative to any of the other 9 clones ([2]; 1:50 w/v Ab dilution): 8-10 fold; CHO-US28-A1 cells bound/stained ([2]; comparison with commercial US28 Ab, FIG. 11A): more than 50%

B3: 13-5G6-1D3: mouse monoclonal IgG1 kappa antibody against US28 ECD3; VH SEQ ID NO: 12, VL SEQ ID NO: 18 (antibody, V domains shown)
VH: B2 VH
VL: B2 VL
modifications: Mature form of VH sequence of 1D3, without the leader sequence; Mature form of VL sequence of 1D3, without the leader sequence
**Q.** With B3 as the molecule, how does the “background binding, % of CHO negative control population” value ([1]; FIG. 21A) read?
**A.** The value was 0.88%.

**Q.** What about the “IHC staining of malignant pheochromocytoma” value ([3]; positive control on the same TMA plate) of the same molecule?
**A.** Its value is “positive staining”.

**Q.** And the “IHC staining of brain tissue NAT” value [4]?
**A.** The value was “negative”.

B4: 7B1F3: mouse IgG1 kappa antibody against US28 ECD1 Peptide-N; VH SEQ ID NO: 211, VL SEQ ID NO: 213 (antibody, V domains shown)
VH: EVQLQQSGAELAKPGASVKMSCKASGYTFTNYWMHWVKQRPGQGLEWIGYVNPRTGYTEYNQKFKDKATLTADKSSRTAYMQLSSLTSEDSAVYSCARILNGTGFAYWGQGTLVTVSA
VL: DIVLTQSPSSLTVSVGEKFTMSCKSSQSLLYSSNQKNYLAWYQQKPGQSPKLLIYWASTRESGVPDRFTGSGSGTDFTLAISSVKPEDLAIYYCQQYYSFPLTFGAGTKLEIK
modifications: Mature form of VH sequence of 7B1F3, without the leader sequence; Mature form of VL sequence of 7B1F3, without the leader sequence
**Q.** B4 was tested. Which “Percentage of binding to CHO cells” value ([1]; Table 7B, (1:5), secondary antibody background removed) did it give?
**A.** Its value is 0.67%.
